Results from US20120316071A1 (published 2012).

What was measured:
[1] = molecular target: T1, Recombinant Human DLL4 (R&D Systems Cat#1506-D4/CF) (human, UniProt Q9NR61 27-524); assay: ECL multispot (MSD) binding assay, DLL4 signal over blank spot; Fab concentration not given
T1 construct: Bought recombinant protein; also called delta-like protein 4; rHuman DLL4

[2] = molecular target: T1, Recombinant Human DLL4 (R&D Systems …); assay: ECL multispot (MSD) binding assay, DLL4 spotted on plate, purified Fab in solution; Fab concentration not given
[3] = molecular target: T2, Recombinant Human DLL4 (delta-like protein 4) (human, UniProt Q9NR61 27-524); assay: ELISA, DLL4 coated on plate, 100 nM Fab
T2 construct: Bought recombinant human DLL4 (R&D Systems Cat#1506-D4/CF) coated on the ELISA plate; also called rHuman DLL4; Delta-like ligand 4

Signal/Blank [1]	ECL signal [2]	ELISA Signal-blank (100 nM Fab) [3]	Binder
1020	203000		Fab VH1-46_IGHD6-6*01_IGHJ1*01 S102A/S103P/S104F/H111F (APFF) & L6_IGKJ1*01 S30Q (Fab, V domains shown, Fab expressed in E. coli: VH joined to CH1 (Plasmid A, His6 and Flag tags), VL joined to kappa CL (Plasmid C); also called APFF S30Q) VH: QVQLVQSGAEVKKPGASVKVSCKASGYTFTSYYMHWVRQAPGQGLEWMGIINPSGGSTSYAQKFQGRVTMTRDTSTSTVYMELSSLRSEDTAVYYCAREEYAPFSAEYFQFWGQGTLVTVSS VL: EIVLTQSPATLSLSPGERATLSCRASQSVQSYLAWYQQKPGQAPRLLIYDASNRATGIPARFSGSGSGTDFTLTISSLEPEDFAVYYCQQRSNWPPWTFGQGTKVEIKR
350	146000		Fab VH1-46_IGHD6-6*01_IGHJ1*01 S102A/S103P/S104F/H111F (APFF) & L6_IGKJ1*01 S30R (Fab, V domains shown, Fab expressed in E. coli: VH joined to CH1 (Plasmid A, His6 and Flag tags), VL joined to kappa CL (Plasmid C); also called APFF S30R) VH: QVQLVQSGAEVKKPGASVKVSCKASGYTFTSYYMHWVRQAPGQGLEWMGIINPSGGSTSYAQKFQGRVTMTRDTSTSTVYMELSSLRSEDTAVYYCAREEYAPFSAEYFQFWGQGTLVTVSS VL: EIVLTQSPATLSLSPGERATLSCRASQSVRSYLAWYQQKPGQAPRLLIYDASNRATGIPARFSGSGSGTDFTLTISSLEPEDFAVYYCQQRSNWPPWTFGQGTKVEIKR
300	122000		Fab VH1-46_IGHD6-6*01_IGHJ1*01 S102A/S103P/S104F/H111F (APFF) & L6_IGKJ1*01 S30T (Fab, V domains shown, Fab expressed in E. coli: VH joined to CH1 (Plasmid A, His6 and Flag tags), VL joined to kappa CL (Plasmid C); also called APFF S30T) VH: QVQLVQSGAEVKKPGASVKVSCKASGYTFTSYYMHWVRQAPGQGLEWMGIINPSGGSTSYAQKFQGRVTMTRDTSTSTVYMELSSLRSEDTAVYYCAREEYAPFSAEYFQFWGQGTLVTVSS VL: EIVLTQSPATLSLSPGERATLSCRASQSVTSYLAWYQQKPGQAPRLLIYDASNRATGIPARFSGSGSGTDFTLTISSLEPEDFAVYYCQQRSNWPPWTFGQGTKVEIKR
660	191000		Fab VH1-46_IGHD6-6*01_IGHJ1*01 S102A/S103P/S104F/H111F (APFF) & L6_IGKJ1*01 S30W (Fab, V domains shown, Fab expressed in E. coli: VH joined to CH1 (Plasmid A, His6 and Flag tags), VL joined to kappa CL (Plasmid C); also called APFF S30W) VH: QVQLVQSGAEVKKPGASVKVSCKASGYTFTSYYMHWVRQAPGQGLEWMGIINPSGGSTSYAQKFQGRVTMTRDTSTSTVYMELSSLRSEDTAVYYCAREEYAPFSAEYFQFWGQGTLVTVSS VL: EIVLTQSPATLSLSPGERATLSCRASQSVWSYLAWYQQKPGQAPRLLIYDASNRATGIPARFSGSGSGTDFTLTISSLEPEDFAVYYCQQRSNWPPWTFGQGTKVEIKR
		0.17	Fab VH5-51_IGHD5-18*01>3_IGHJ4*01 G100K/G104T G24T/S28R/G35V (H:KT TRV) & V3-4_IGLJ1*01 V91L/S96P S57D (Fab, V domains shown, Fab made in E. coli: VH in plasmid A (CH1, His6 and Flag tags), VL in plasmid E (lambda CL); also called H:KT TRV & L:LP S57D) VH: EVQLVQSGAEVKKPGESLKISCKTSGYRFTSYWIVWVRQMPGKGLEWMGIIYPGDSDTRYSPSFQGQVTISADKSISTAYLQWSSLKASDTAMYYCARRKYSYTYDYFDYWGQGTLVTVSS VL: QTVVTQEPSFSVSPGGTVTLTCGLSSGSVSTSYYPSWYQQTPGQAPRTLIYSTNTRDSGVPDRFSGSILGNKAALTITGAQADDESDYYCLLYMGPGISYVFGTGTKVTVL
		0.1	Fab VH5-51_IGHD5-18*01>3_IGHJ4*01 G100K/G104T G24T/S28R/G35V (H:KT TRV) & V3-4_IGLJ1*01 V91L/S96P S57F (Fab, V domains shown, Fab made in E. coli: VH in plasmid A (CH1, His6 and Flag tags), VL in plasmid E (lambda CL); also called H:KT TRV & L:LP S57F) VH: EVQLVQSGAEVKKPGESLKISCKTSGYRFTSYWIVWVRQMPGKGLEWMGIIYPGDSDTRYSPSFQGQVTISADKSISTAYLQWSSLKASDTAMYYCARRKYSYTYDYFDYWGQGTLVTVSS VL: QTVVTQEPSFSVSPGGTVTLTCGLSSGSVSTSYYPSWYQQTPGQAPRTLIYSTNTRFSGVPDRFSGSILGNKAALTITGAQADDESDYYCLLYMGPGISYVFGTGTKVTVL
		0.23	Fab VH5-51_IGHD5-18*01>3_IGHJ4*01 G100K/G104T G24T/S28R/G35V (H:KT TRV) & V3-4_IGLJ1*01 V91L/S96P S57G (Fab, V domains shown, Fab made in E. coli: VH in plasmid A (CH1, His6 and Flag tags), VL in plasmid E (lambda CL); also called H:KT TRV & L:LP S57G) VH: EVQLVQSGAEVKKPGESLKISCKTSGYRFTSYWIVWVRQMPGKGLEWMGIIYPGDSDTRYSPSFQGQVTISADKSISTAYLQWSSLKASDTAMYYCARRKYSYTYDYFDYWGQGTLVTVSS VL: QTVVTQEPSFSVSPGGTVTLTCGLSSGSVSTSYYPSWYQQTPGQAPRTLIYSTNTRGSGVPDRFSGSILGNKAALTITGAQADDESDYYCLLYMGPGISYVFGTGTKVTVL
		0.2	Fab VH5-51_IGHD5-18*01>3_IGHJ4*01 G100K/G104T G24T/S28R/G35V (H:KT TRV) & V3-4_IGLJ1*01 V91L/S96P S57E (Fab, V domains shown, Fab made in E. coli: VH in plasmid A (CH1, His6 and Flag tags), VL in plasmid E (lambda CL); also called H:KT TRV & L:LP S57E) VH: EVQLVQSGAEVKKPGESLKISCKTSGYRFTSYWIVWVRQMPGKGLEWMGIIYPGDSDTRYSPSFQGQVTISADKSISTAYLQWSSLKASDTAMYYCARRKYSYTYDYFDYWGQGTLVTVSS VL: QTVVTQEPSFSVSPGGTVTLTCGLSSGSVSTSYYPSWYQQTPGQAPRTLIYSTNTRESGVPDRFSGSILGNKAALTITGAQADDESDYYCLLYMGPGISYVFGTGTKVTVL
